B1: hu27H1L2 (antibody, human IgG1, kappa)
heavy: not shown
light: EIVLTQSPDFQSVTPKEKVTITCSASSSVSYMYWYQQKPDQSPKPWIYRTSNLASGVPSRFSGSGSGTDYTLTINSLEAEDAATYYCQQYHSYPLTFGQGTKLEIKRTVAAPSVFIFPPSDEQLKSGTASVVCLLNNFYPREAKVQWKVDNALQSGNSQESVTEQDSKDSTYSLSSTLTLSKADYEKHKVYACEVTHQGLSSPVTKSFNRGEC
B2: hu27H1L5 (antibody, human IgG1, kappa)
heavy: not shown
light: B1 light with T22Q
B3: hu27H1L1 (antibody, human IgG1, kappa)
heavy: not shown
light: B1 light with Y70F
B4: hu27H1L4 (antibody, human IgG1, kappa)
heavy: not shown
light: B1 light with T22Q, Y70F
B5: hu27H1L3 (antibody, human IgG1, kappa)
heavy: not shown
light: B1 light with E1Q
B6: hu46H2L2 (antibody, human IgG1, kappa, V domains shown)
VH: EVQLVESGGGLVKPGGSLRLSCAASGFTFSNYGMSWVRQAPGKGLEWVSTIGSGGGYTYYSDSVKGRFTISRDNAKNSLYLQMNSLRAEDTAVYYCVRHPQIGYWGQGTLVTVSS
VL: DIQMTQSPSSLSASVGDRVTITCKASQSVGTAVAWYQQKPGKAPKLLIYSASSRYTGVPSRFSGSGSGTDFTLTISSLQPEDFADYFCHQYSSYPLTFGGGTKVEIKR
B7: Chi31 (antibody, human IgG1, kappa, V domains shown)
VH: EVKLVESEGGLVQPGSSKKLSCTASGFTFSDYYMAWVRQVPEKGLEWVASINYDGSSTYYLDSLKSRFIISRDNAKNNLYLQMNSLKSEDTATYYCAGSDGYWAWFAYWGQGTLVTVSA
VL: DIQMTQSPASLSASVGEAVTITCRASGNIHNYLAWYQQKQGKSPQLLVYNAETLADGVPSRFSGSGSGTQFSLKINSLRPEDFGSYYCQHFWSTPPTFGGGTKLEIKR
B8: hu71H3L1 (antibody, human IgG1, kappa)
heavy: not shown
light: DIVMTQTPLSLPVTPGEPASISCRSSQSLVHSYGNTYLHWYLQKPGQSPQLLIYKVSNRFSGVPDRFSGSGSGTDFTLKISRVEAEDVGVYYCSQTTHVPWTFGGGTKVEIKRTVAAPSVFIFPPSDEQLKSGTASVVCLLNNFYPREAKVQWKVDNALQSGNSQESVTEQDSKDSTYSLSSTLTLSKADYEKHKVYACEVTHQGLSSPVTKSFNRGEC
B9: hu71H2L2 (antibody, human IgG1, kappa)
heavy: not shown
light: B8 light with I2V, M4V
B10: hu71H1L1 (antibody, human IgG1, kappa)
heavy: not shown
light: B8 light
B11: hu71H3L2 (antibody, human IgG1, kappa)
heavy: not shown
light: B8 light with I2V, M4V
notes: also called hu71L2H3
B12: hu71H4L1 (antibody, human IgG1, kappa)
heavy: not shown
light: B8 light
B13: hu71H4L2 (antibody, human IgG1, kappa)
heavy: not shown
light: B8 light with I2V, M4V
B14: hu71H1L2 (antibody, human IgG1, kappa)
heavy: not shown
light: B8 light with I2V, M4V
B15: hu71H2L1 (antibody, human IgG1, kappa)
heavy: not shown
light: B8 light
B16: hu50H1L2 (antibody, human IgG1, kappa)
heavy: not shown
light: DVFMTQSPLSLPVTPGEPASISCRSSQSILHSNGNTYLEWYLQKPGQSPQLLIYRVSNRFSGVPDRFSGSGSGTDFTLKISRVEAEDVGVYYCFQGLHVPPTFGQGTKLEIKRTVAAPSVFIFPPSDEQLKSGTASVVCLLNNFYPREAKVQWKVDNALQSGNSQESVTEQDSKDSTYSLSSTLTLSKADYEKHKVYACEVTHQGLSSPVTKSFNRGEC
notes: also called hu50L2H1
B17: hu27H1L6 (antibody, human IgG1, kappa)
heavy: not shown
light: B1 light with E1Q, T22Q
B18: hu41H2L2 (antibody, human IgG1, kappa, V domains shown)
VH: EVQLVQSGAEVKKPGASVKVSCKASGYTFTSYGISWVRQAPGQGLEWMGEIFPRRGNTYYNEKFRGRVTLTADKSTSTAYMELRSLRSDDTAVYYCARVFDGYYNYAMDYWGQGTTVTVSS
VL: DIQMTQSPSSLSASVGDRVTITCRASQDIGSSLNWLQQKPGKAIKRLIYATSSLDSGVPSRFSGSRSGTDYTLTISSLQPEDFATYYCLQYASSPYTFGGGTKVEIKR
B19: hu15H4L2 (antibody, human IgG1, kappa, V domains shown)
VH: EFQLVQSGAEVKKPGASVKVSCKASGYSFTDHNMNWVRQAPGQRLEWMGLINPNYGTADYNQKFKGRVTLTVDQSATTAYMELSSLRSEDTAVYYCARGSSLFAYWGQGTLVTVSS
VL: DIQMTQSPSSLSASVGDRVTITCKASQGVDTAVAWYQQKPGKSPKLLIYWASTRHTGVPDRFSGSGSGTDFTLTISSLQPEDVATYYCQQYSRYPLTFGQGTKLEIKR
B20: hu43H3L2 (antibody, human IgG1, kappa, V domains shown)
VH: EVQFVESGGGLVQPGGSLRLSCAASGFTFSNYWMNWLRQAPGKGLEWVAQVRLKSDNYATHYAESVKGRFTISREDAKNSAYLQMNSLRAEDTAVYYCSENYYGPAGPFDFWGQGTTVTVSS
VL: B19 VL with G28N, D30H, A32S, W50S, T53N, H55Y, T56S, D60S, R93S
B21: hu31H1L1 (antibody, human IgG1, kappa, V domains shown)
VH: EVQLVESGGGLVQPGGSLRLSCAASGFTFSDYYMAWVRQAPGKGLEWVASINYDGSSTYYLDSLKSRFTISRDNAKNSLYLQMNSLRAEDTAVYYCAGSDGYWAWFAYWGQGTLVTVSS
VL: DIQMTQSPSSLSASVGDRVTITCRASGNIHNYLAWYQQKPGKAPKLLIYNAETLADGVPSRFSGSGSGTDFTLTISSLQPEDFATYYCQHFWSTPPTFGGGTKVEIKR
B22: chi73 (antibody, human IgG1, kappa, V domains shown)
VH: QVQLQQSGPELVKPGASVKISCKASGYAFSTSWMNWVKERPGKGLEWIGRIYPGDGDTKYNGKFQGKATLTADKSSSTAYMKLSSLTSEDSAVYFCVRSIYYLYYFDYWGQGTTLTVSS
VL: DIQMTQPTSSLSASLGDRVTISCSTSQDIYNNLSWFQQKPDGTVRLLIYYTSSLHSGVPSRFSGSGSGTDYSLTISNLEPEDIATYYCQQYNNLPFTFGGGTNLEIRR
B23: hu2H1L1 (antibody, human IgG1, kappa, V domains shown)
VH: EVQLVESGGGLVQPGGSLRLSCAASGFTFSDYYMAWVRQAPGKGLEWVANINFDGSSTYYLDSLKSRFTISRDNAKNSLYLQMNSLRAEDTAVYYCARDLDGYYGYFDVWGQGTTVTVSS
VL: EIVLTQSPDFQSVTPKEKVTITCSASSSVSHMYWYQQKPDQSPKLLIYRTSNLASGVPSRFSGSGSGTDFTLTINSLEAEDAATYYCQQYHSYPLMFGQGTKLEIKR

Where a chain is given by its changes, count along the chain named.

The first assay deals with T1, human PSMA on cells (Cho-hPSMA, CHO-K1 cells overexpressing full-length human PSMA) (human, UniProt Q04609 1-750).
T1 construct: whole, on cells; also called cell surface PSMA; PSMA-expressing Lncap cells
T1 sequence (Q04609 whole entry): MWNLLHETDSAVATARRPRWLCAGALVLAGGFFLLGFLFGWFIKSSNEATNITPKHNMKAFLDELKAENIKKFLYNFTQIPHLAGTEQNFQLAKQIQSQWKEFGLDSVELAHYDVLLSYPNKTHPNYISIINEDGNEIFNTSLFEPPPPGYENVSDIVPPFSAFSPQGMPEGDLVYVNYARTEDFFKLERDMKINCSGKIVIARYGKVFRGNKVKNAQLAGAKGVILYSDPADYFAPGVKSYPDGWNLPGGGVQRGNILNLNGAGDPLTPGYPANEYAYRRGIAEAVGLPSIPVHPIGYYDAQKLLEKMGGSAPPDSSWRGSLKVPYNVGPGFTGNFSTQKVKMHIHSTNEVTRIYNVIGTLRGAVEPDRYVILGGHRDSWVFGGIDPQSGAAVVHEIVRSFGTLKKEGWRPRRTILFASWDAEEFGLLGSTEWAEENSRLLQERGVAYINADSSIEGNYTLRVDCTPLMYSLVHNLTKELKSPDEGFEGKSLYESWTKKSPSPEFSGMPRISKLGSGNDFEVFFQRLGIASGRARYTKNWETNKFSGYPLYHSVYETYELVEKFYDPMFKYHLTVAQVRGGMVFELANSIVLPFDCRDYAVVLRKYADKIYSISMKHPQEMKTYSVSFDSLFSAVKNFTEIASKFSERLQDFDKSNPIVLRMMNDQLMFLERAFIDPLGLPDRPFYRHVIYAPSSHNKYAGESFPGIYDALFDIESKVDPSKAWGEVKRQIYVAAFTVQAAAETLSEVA
Nature of the assay: cell ELISA (OD450), Cho-hPSMA cells. The method, then:
Experiment 2: Cells were cultured and inoculated onto a cell plate using the same method as in Experiment 1. The antibodies were serially diluted, and the antibody solutions were added to the cell plate at 100 μL/well. The plate was incubated at 4° C. for 1 h and then washed. An HRP-Goat Anti-human IgG (H+L) secondary antibody dilution (1:8000) was added to the cell plate at 100 μL/well, and the plate was incubated at 4° C. for 1 h and then washed by centrifugation. After color development with TMB, the reaction was stopped with 0.1 M sulfuric acid, and OD450 values were measured.
On the technique in general: In an ELISA, binding on a coated surface is turned into a signal by an enzyme label.
As usually defined, the EC50 is the concentration giving half of the maximal effect. Low readings indicate an effect from little substance, high ones a need for much substance. Molecule B1 showed a concentration for a half-maximal effect (EC50) of 1.65 µg/mL.

B2 showed a half-maximal effective concentration (EC50) of 2.39 µg/mL.

With B3, the EC50 was 1.17 µg/mL.

For B4, the EC50 was 1.73 µg/mL.

B5 had an EC50 of 1.4 µg/mL.

With B6, the EC50 worked out at 0.0202 µg/mL.

B7: a half-maximal effect (EC50) was put at 0.141 µg/mL.

B8 registered an EC50 of 0.086 µg/mL.

Molecule B9 gave an EC50 of 0.116 µg/mL.

Molecule B10 returned an EC50 of 0.12 µg/mL.

Turning to B11, the response was half-maximal at 0.112 µg/mL (EC50).

Consider B12, for which the response was half-maximal at 0.101 µg/mL (EC50).

In turn, B13 yielded a 50% effective concentration (EC50) of 0.0867 µg/mL.

In the case of B14, the response was half-maximal at 0.11 µg/mL (EC50).

In the case of B15, the EC50 was found to be 0.0631 µg/mL.

B16 returned an EC50 of 0.0603 µg/mL.

In the case of B17, a half-maximal response (EC50) required 2.77 µg/mL.

Molecule B18 gave an EC50 of 1.1 µg/mL.

For B19, the EC50 was 0.0795 µg/mL.

In turn, B20 registered an EC50 of 4.03 µg/mL.

Regarding B21, the EC50 worked out at 0.142 µg/mL.

The next assay deals with T2, human PSMA antigen (R&D SYSTEM, 4234-ZN-010) (human, UniProt Q04609 44-750).
T2 construct: bought antigen
T2 sequence (Q04609 44-750 limits assumed): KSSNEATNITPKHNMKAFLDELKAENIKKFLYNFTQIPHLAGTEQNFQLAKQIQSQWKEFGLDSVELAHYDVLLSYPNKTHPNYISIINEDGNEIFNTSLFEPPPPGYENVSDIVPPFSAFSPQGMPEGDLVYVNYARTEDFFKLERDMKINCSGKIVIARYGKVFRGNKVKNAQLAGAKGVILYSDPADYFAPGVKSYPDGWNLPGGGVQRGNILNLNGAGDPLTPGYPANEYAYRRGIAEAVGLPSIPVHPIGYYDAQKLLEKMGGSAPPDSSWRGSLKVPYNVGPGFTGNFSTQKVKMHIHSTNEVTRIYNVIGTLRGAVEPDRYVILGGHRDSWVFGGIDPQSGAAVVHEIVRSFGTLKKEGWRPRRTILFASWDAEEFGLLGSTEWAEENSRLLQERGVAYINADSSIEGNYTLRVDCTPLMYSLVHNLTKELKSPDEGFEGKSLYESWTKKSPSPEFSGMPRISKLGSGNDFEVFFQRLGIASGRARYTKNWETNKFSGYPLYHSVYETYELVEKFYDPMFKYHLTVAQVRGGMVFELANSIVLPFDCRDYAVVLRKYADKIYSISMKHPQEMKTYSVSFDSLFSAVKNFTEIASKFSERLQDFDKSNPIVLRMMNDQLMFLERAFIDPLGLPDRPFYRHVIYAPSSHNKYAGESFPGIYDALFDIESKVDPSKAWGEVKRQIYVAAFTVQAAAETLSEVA
The assay is described as follows: ELISA, plate-bound PSMA antigen. The method, then: To test the ability of the PSMA-targeting humanized antibodies of the present disclosure to bind to PSMA antigen, the ELISA method was used in this test example to measure the binding of the PSMA-targeting humanized antibodies to human PSMA antigen (purchased from R&D SYSTEM, 4234-ZN-010). The specific steps are as follows: A 96-well plate was coated with PSMA antigen at 1 μg/well and placed at 4° C. overnight. After the supernatant was discarded, the plate was blocked with 5% skim milk for 2 h. Different concentrations of humanized antibodies were prepared using 1% BSA. The initial concentration was 10 μg/mL and was serially diluted 4-fold to obtain 12 concentrations. After the blocked 96-well plate was washed twice, the […] was added, and the plate was incubated at 4° C. for 1 h. After four washes, the plate was incubated with Strepidation-HRP secondary antibody (1:10,000) at 4° C. for 1 h. After color development with TMB, the reaction was stopped with 0.1 M sulfuric acid.
For the molecule B22, a half-maximal effect (EC50) was put at 0.029 µg/mL and the “Top (maximum absorbance)” value is 2.08 absorbance.

As to B6, a half-maximal response (EC50) required 0.0365 µg/mL and the “Top (maximum absorbance)” value is 1.67 absorbance.

As for B11, the EC50 was 0.0589 µg/mL and the “Top (maximum absorbance)” value was 0.952 absorbance.

Consider B16, for which the EC50 is 0.0421 µg/mL and the “Top (maximum absorbance)” value was 1.3 absorbance.

Take B23: a half-maximal effect (EC50) was put at 0.0354 µg/mL and the “Top (maximum absorbance)” value was 0.975 absorbance.

On to B17, for which the EC50 came out at 0.398 µg/mL and the “Top (maximum absorbance)” value was found to be 0.553 absorbance.

On to B18, for which the EC50 worked out at 0.61 µg/mL and the “Top (maximum absorbance)” value is 0.421 absorbance.

In the case of B19, the concentration for a half-maximal effect (EC50) is 0.0421 µg/mL and the “Top (maximum absorbance)” value turned out to be 2.23 absorbance.

Turning to B20, a half-maximal response (EC50) required 1.06 µg/mL and the “Top (maximum absorbance)” value was 0.245 absorbance.

As for B21, the EC50 was determined as 0.0864 µg/mL and the “Top (maximum absorbance)” value was determined as 1.76 absorbance.

For the origin of these results see patent publication US20250043022A1 (JIANGSU HENGRUI PHARMACEUTICALS, published 2025).
